Data from article PMC5959072, “Biochemical characterization of RecBCD enzyme from an Antarctic Pseudomonas species and identification of its cognate Chi (χ) sequence” (PLoS ONE, 2018).

Test system: Nc1ncnc2c1ncn2[C@@H]1O[C@H](COP(=O)(O)OP(=O)(O)OP(=O)(O)O)[C@@H](O)[C@H]1O
Experiment: purified protein
Conditions: 22 °C, pH 7.5, 1 mM Mg acetate, NdeI-linearized pBR322 dsDNA, ATP sites in RecB and RecD
From the text: TLC ATPase assay with [γ-32P]ATP tracer on RecBCD^Ps (RecBCD enzyme of Pseudomonas syringae Lz4W)

Substance: RecBCD^Ps (RecBCD enzyme of Pseudomonas syringae Lz4W) (Pseudomonas syringae)
- Km: 57.8 ± 10.1 µM
- kcat: 245 s⁻¹
